Test system: MS2 coat protein
Assay: apparent KD of MS2 coat protein; designed switch direction (-1 OFF switch, 1 ON switch): -1; higher = weaker reporter binding
How it was run: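 Each step of the titration lasted 0.8–1.5 h at the lowest concentration and 10–20 min at the highest. The protein, SNAP-549-labelled MS2 coat protein, went from 0.7 or 1.5 nM doubling to 3 µM over RNA switches transcribed on Illumina chips by stalled E. coli RNA polymerase. Normalised cluster fluorescence was curve-fitted, and the per-design median over clusters is given as apparent KD.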

[1] = Eterna round: R95, input ligand: FMN 200 uM
[2] = Eterna round: R95, input ligand: microRNA oligo, concentration not stated
[3] = Eterna round: R95, input ligand: none
[4] = input ligand: microRNA oligo, concentration not stated

| Sequence | apparent KD of MS2 coat protein [1] [nM] | apparent KD of MS2 coat protein [2] [nM] | apparent KD of MS2 coat protein [3] [nM] | apparent KD of MS2 coat protein (input ligand: FMN 200 uM) [nM] | apparent KD of MS2 coat protein [4] [nM] | apparent KD of MS2 coat protein (input ligand: none) [nM] |
| --- | --- | --- | --- | --- | --- | --- |
| GGUUGGCGAGGAUAUACAUGAGGAUCACCCAUGUGAGAGAAAAAAGUGAGGAACAAAAGUAGAAGGCGCUGACG [salish99_ex3_r3_033] (puzzle: Exclusion 3) | 184 | 48.5 | 58.2 |  |  |  |
| GGUUGGCGAGGAUAUACAUGAGGAUCACCCAUGUGAGAGAAAAAAGUGAGGAAGAAAAGUAGAAGGCGCUGACG [salish99-ex3-14] (Eterna round: R96, puzzle: Exclusion 3) |  |  |  | 354 | 105 | 84 |
| GGUUGGCGAGGAUAUACAUGAGGAUCACCCAUGUGAGAGAAAAAAGUGAGGAAGAAAAGUAGAAGGCGCUGACG [salish99-ex3-champ] (puzzle: Exclusion 3) | 412 | 49.3 | 44.5 |  |  |  |
| GGUUGGCGAGGAUAUACAUGAGGAUCACCCAUGUGAGAGAAAAAAGUGAGGAAGAAAAGUAGAAGGCGCUGACU [salish99_ex3_r3_047] (puzzle: Exclusion 3) | 221 | 53.2 | 50.1 |  |  |  |
| GGUUGGCGAGGAUAUACAUGAGGAUCACCCAUGUGAGAGAAAAGAGUGAGAACGAAAAGUAGAAGGCGCUGACG [salish99_ex3_r3_059] (puzzle: Exclusion 3) | 60 | 112 | 207 |  |  |  |
| GGUUGGCGAGGAUAUACAUGAGGAUCACCCAUGUGAGAGAAAAGAGUGAGGAAGAAAAGUAGAAGGCGCUGACG [salish99_ex3_r3_006] (puzzle: Exclusion 3) | 55.9 | 69.8 | 76.1 |  |  |  |
| GGUUGGCGAGGAUAUACAUGAGGAUCACCCAUGUGAGAGAUACUAGUGAGGUCGAUUGGUAGAAGGCGCUGACA [Mat - Exclusion 3 - Mod of JL D78] (puzzle: Exclusion 3) |  | 114 |  |  |  |  |
| GGUUGGCGAGGAUAUACAUGAGGAUCACCCAUGUGAGAGGAAAAAGUGAGAACGAAAAGUAGAAGGCGCUGACG [salish99_ex3_r3_062] (puzzle: Exclusion 3) | 119 | 78.9 | 225 |  |  |  |
| GGUUGGCGAGGAUAUACAUGAGGAUCACCCAUGUGAGUGAAAAAAGUGAGGAAGAAAAGUAGAAGGCGCUGACG [salish99_ex3_r3_008] (puzzle: Exclusion 3) | 288 | 254 | 196 |  |  |  |
| GGUUUGUAAGGAUAUCCGAGAGGUAGGUGAGGGUUAGGGAAGGAGAAGGUACAUGAGGAUCACCCAUGUAAGGG [AK-MS2ROC-r4-exclusion4-10] (Eterna round: R97, puzzle: Exclusion 4) |  |  |  | 127 |  | 102 |
| GUAAAACAUGAGGAUCACCCAUGUCAGGAUAUACGAAUCCACCCUAACUGCGUGGAUCGUAGAAGGGACAUAGG [Exclusion 1 (MOD5.1 Esqu)] (Eterna round: R97, puzzle: Exclusion 1) |  |  |  | 17.9 |  | 44.7 |
| GUAAAACAUGUAGGAUAUGCGUGGCAAAGCUAUGCAGAAGGACAUGAGGAUCACCCAUGUUAAAGCGUCUGAGUACAGAUGCAA [Mat - Exclusion NG 1 - Mod of JL - D96] (Eterna round: R96, puzzle: Exclusion NG 1) |  |  |  | 445 | 27.4 | 36 |
| GUAAACGAAGAGGAUAUAUGAUAUCAAAGCUUCAUAGAAGGCUUCACAUGAGGAUCACCCAUGUGAUCUUCAAA [Mat - Exclusion 6 - JL Mod - D26] (Eterna round: R97, puzzle: Exclusion 6) |  |  |  | 203 |  | 38.1 |
| GUAAACGCAGAGGAUAUAUCAGAUCAAAGCUGCAUAGAAGGCUGCACAUGAGGAUCACCCAUGUGGUCUUUAAU [Mat - Exclusion 6 - JL Mod - D3] (Eterna round: R97, puzzle: Exclusion 6) |  |  |  | 203 |  | 21 |
| GUAAAGAGAGGAUAUACAUGAGGAUCACCCAUGUACGACCAGCAGAAAUGGUCCUCGAGUAGAAGGCUCGGGUA [Araris] (Eterna round: R97, puzzle: Exclusion 3) |  |  |  | 239 |  | 51.7 |
| GUAAAGGUAGGAUAUACGAAGAAAAAGGGUAGAAUAAUAACACAUGAGGAUCACCCAUGUAGAAGGACCAAAUG [Mat - Exclusion 2 - Mod of my Tesla design - D5] (puzzle: Exclusion 2) | 65.7 | 26.5 | 32.4 |  |  |  |

| Sequence | apparent KD of MS2 coat protein [1] [nM] | apparent KD of MS2 coat protein [2] [nM] | apparent KD of MS2 coat protein [3] [nM] | apparent KD of MS2 coat protein (input ligand: FMN 200 uM) [nM] | apparent KD of MS2 coat protein [4] [nM] | apparent KD of MS2 coat protein (input ligand: none) [nM] |
| --- | --- | --- | --- | --- | --- | --- |
| GUAAAGUGAGGAUAUGGUAAAGUAAGUAUGUAGUAAGUAAUCCAGAAGGCACAUGAGGAUCACCCAUGUAAAUG [Mat - Exclusion 4 - D99] (puzzle: Exclusion 4) |  | 28.8 |  |  |  |  |
| GUAAAGUGAGGAUAUGGUAAAUUAAUUAUUUAGUAAUUAAUCCAGAAGGCACAUGAGGAUCACCCAUGUAAAUG [Mat - Exclusion 4 - D95] (puzzle: Exclusion 4) |  | 32.1 |  |  |  |  |
| GUAACAUUAAAGGCUCGUGACAUGAGGAUCACCCAUGUAUGGACCGUUCCACUUACCGACAAGCUGUGAUCGUCCUU [Eternabot (L2) Solution 22] (Eterna round: R97, puzzle: Sensor, turn-off variant 1) |  |  |  | 40.8 |  | 42 |
| GUAAUGAUUGUGAGGAUAUUUCAUAGAUAGAUAUUAGAGAAGGUACAUGAGGAUCACCCAUGUGUGAUCAUACA [Brourd's EX4 #73] (Eterna round: R97, puzzle: Brourd's mod of Exclusion 4) |  |  |  | 672 |  | 1050 |
| GUAAUGUCCGAGGAUAUCCUUCUAAAUAUAUAUGGAGAAGGCGGUACAUGAGGAUCACCCAUGUCCAAAAUGGG [Parada] (Eterna round: R97, puzzle: Exclusion 6) |  |  |  | 229 |  | 1680 |
| GUACUAAGUGUGAGGAUAUCACAGGACGUUCACUAUGAGAAGGUACAUGAGGAUCACCCAUGUAUCGUGGGUCA [Eternabot (Original) Solution 7] (Eterna round: R97, puzzle: Brourd's mod of Exclusion 4) |  |  |  | 20.3 |  | 17.7 |
| GUACUACAUGAGGAUCACCCAUGUCAGGAUAUGGGAAUUUCAUCAAAAGAUGAAAUUCUUAGAAGGGACAGUAC [Omei Ex1 A5] (Eterna round: R97, puzzle: Exclusion 1) |  |  |  | 24.6 |  | 22.2 |
| GUACUGAAGCUUUGCUUUAAUCGUACAUGAGGAUCACCCAUGUAGGAUAUGGUAGGCAAAGCUUACCAGAAGGACAGAGUGAUC [Mat - Exclusion NG 3 - Mod of JL - D67] (Eterna round: R96, puzzle: Exclusion NG 3) |  |  |  | 103 | 92.1 | 93.1 |
| GUACUGAAGCUUUGCUUUAGUCGUACAUGAGGAUCACCCAUGUAGGAUAUGGUAGGCUUUGCUUACUAGAAGGACAGAGUGAUC [JL EXNG3 1.26] (Eterna round: R96, puzzle: Exclusion NG 3) |  |  |  | 33.1 | 139 | 75.7 |
| GUACUGACAGGAUAUACAUGAGGAUCACCCAUGUGCCCUUAAAGAUGCAAAGCAUCUAGUAGAAGGGUCUGUAC [Omei Ex3 Model Bachelor's Dilema v23] (Eterna round: R97, puzzle: Exclusion 3) |  |  |  | 66.1 |  | 33.4 |
| GUAGAGUAAGGAUAUGAUGAAUAGGAUAGAAUGGUUAGAAAUCAGAAGGUACAUGAGGAUCACCCAUGUAAUGU [Excluse me!!!! 13 - Jieux - Exclusion 4] (puzzle: Exclusion 4) |  | 21.4 |  |  |  |  |
| GUAGAGUAAGGAUAUGGUGAAUAGGAUAGAAUGGUUAGAAACCAGAAGGUACAUGAGGAUCACCCAUGUAAUGU [Excluse me!!!! 16 - Jieux - Exclusion 4] (puzzle: Exclusion 4) |  | 20.2 |  |  |  |  |
| GUAGAGUAAGGAUAUGUAGAAUAGGAUAGAAUGGUUAGAAUGCAGAAGGUACAUGAGGAUCACCCAUGUAAUGU [Excluse me!!!! 5 - Jieux - Exclusion 4] (puzzle: Exclusion 4) |  | 21.2 |  |  |  |  |
| GUAGAGUCAGGAUAUACAAGAUCGAAAGAUCGGCGGUCCAUACAUGAGGAUCACCCAUGUAGAAGGGACUCUAC [Eli x2 4.005] (Eterna round: R97, puzzle: Exclusion 2) |  |  |  | 619 |  | 30.2 |
| GUAGAGUCAGGAUAUACGAGAUCGAAAGAUCAAAGAUUCCUACAUGAGGAUCACCCAUGUAGAAGGGACUCUAC [Eli x2 4.123] (Eterna round: R97, puzzle: Exclusion 2) |  |  |  | 16 |  | 15.6 |

From the supplement of paper PMC9170038
